This is an account of results in PMC10360031.

Assay [1] addresses recombinant human Vim (human) (UniProt P08670). As to the kind of experiment: AFM single-molecule force spectroscopy.
Assay [2] has the same target. As to the kind of experiment: quartz crystal microbalance with dissipation (QCM-D); pH 7.4.
The target is the same in assay [3]. As to the kind of experiment: quartz crystal microbalance with dissipation (QCM-D).

recombinant human Vim (human), sequence (P08670 whole entry): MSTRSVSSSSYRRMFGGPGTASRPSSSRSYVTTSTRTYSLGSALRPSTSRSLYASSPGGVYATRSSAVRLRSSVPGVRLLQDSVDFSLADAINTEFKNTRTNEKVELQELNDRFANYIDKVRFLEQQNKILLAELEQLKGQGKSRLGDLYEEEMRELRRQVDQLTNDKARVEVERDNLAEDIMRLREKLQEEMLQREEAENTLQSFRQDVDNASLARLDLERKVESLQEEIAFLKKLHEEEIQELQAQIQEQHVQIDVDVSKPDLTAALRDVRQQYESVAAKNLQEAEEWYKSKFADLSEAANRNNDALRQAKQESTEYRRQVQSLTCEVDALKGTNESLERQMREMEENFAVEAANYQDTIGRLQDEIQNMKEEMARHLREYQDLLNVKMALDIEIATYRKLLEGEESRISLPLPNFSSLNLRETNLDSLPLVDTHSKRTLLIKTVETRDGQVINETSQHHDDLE

In the case of “wild-strain SARS-CoV-2 spike protein RBD (from UniProt P0DTC2) (domain or fragment)”, in assay [1], the binding probability (specific adhesion events) (% of force curves) was less than 20 and the rupture force at 5 um/s amounted to 58 pN. Besides, the adsorbed amount in assay [2] was determined as 1 mg m^–2. Also, in assay [3], the Ka (equilibrium adsorption constant), fraction I is 0.0011 cm; the Ka (equilibrium adsorption constant), fraction II worked out at 0.46 cm; the Keq, fraction I was 4.7e+06 L mol^–1; the Keq, fraction II stood at 9.2e+08 L mol^–1. In assay [3], the desorption time, loosely bound fraction is 200 s; the desorption time, tightly bound fraction was greater than 10000 s; the kd' (desorption constant), fraction I was 0.063 s^–1; the kd' (desorption constant), fraction II is 0.00015 s^–1.
